This is an account of results in paper PMC5657976.

Assay [1] addresses GST-linked titin ZIg9/ZIg10 (human) (UniProt Q8WZ42). Nature of the assay: SPR; Nicoya OpenSPR, GST-linked titin ZIg9/ZIg10 immobilised on an Au-GST chip; obscurin Ig58/Ig59 injected at 50 ul/min; 20 mM Tris pH 7.5, 50 mM NaCl; 27°C (methods; 22°C in the legend of S11 Fig); 1:1 interaction model.
In assay [2] the target is GST-obscurin-Ig58/Ig59^WT (human) (UniProt Q5VST9). Put plainly: pull-down; 12 ug GST fusion protein on glutathione-Sepharose with 5 ul of the translation reaction; 10 mM Tris-HCl pH 7.9, 150 mM NaCl, 0.5% NONIDET P-40, 1 mM DTT, 1.5 hrs at 4°C; anti-myc Western blot, densitometry normalised to GST protein. On the technique in general: Immunoblotting shows a protein as a band on a membrane.

“obscurin Ig58/Ig59 p.Arg4444Trp (domain or fragment)”: in assay [1], the Kd came to 1600 nM. Turning to “obscurin Ig58/Ig59 (wild type) (from UniProt Q5VST9 1-7968) (domain or fragment)”, the Kd in assay [1] came out at 108 nM.

In turn, “myc-tagged titin domains ZIg9/ZIg10 (from UniProt Q8WZ42-12 1-35991) (domain or fragment)” showed a bound fraction, fold over GST-Ig58/Ig59^MUT in assay [2] of 2 fold.

Broadly, the Kd is the free concentration of one partner at which half of the binding sites on the other are occupied at equilibrium, for simple one-to-one binding. High values mean a looser complex, low ones a tighter complex.
